{
  "source": "paper PMC9333307",
  "molecular_target": "Urtica dioica agglutinin (Urtica dioica (stinging nettle))",
  "assay": "ELISA; microwells coated with serial dilutions (1:2 to 1:16) of UDA in PBS at 4°C overnight; blocked with 0.3% skim milk; 0.5 μg.mL recombinant RBD added for 1 h at RT; detected with rabbit anti-his antibodies and HRP-conjugated secondary antibody, TMB, absorbance at 450 nm; wells without UDA as negative control",
  "design": "unit not given here",
  "data": [
    {"substance": "recombinant receptor-binding domain (RBD) of SARS-CoV-2 Spike protein (from UniProt P0DTC2 319-541) (domain or fragment)", "values": [
      {"measurement": "absorbance at 450 nm", "result": 420}
    ]}
  ]
}
